Experimental data taken from patent publication US20250382352A1 (SCG CELL THERAPY PTE, published 2025).
Where two headings read alike, the source gives them in different places.

How the values were obtained:
[1] = biological target: T1, rhesus CD3ε recombinant protein (rhesus); assay: ELISA, recombinant rhesus CD3ε
T1 construct: also called rhesus CD38 [sic]

[2] = biological target: T1, rhesus CD3ε recombinant protein; assay: ELISA, recombinant rhesus CD3ε; remark: listed apart in the source
[3] = biological target: T2, HBsAg recombinant protein (hepatitis B virus); assay: ELISA, recombinant HBsAg
T2 chain: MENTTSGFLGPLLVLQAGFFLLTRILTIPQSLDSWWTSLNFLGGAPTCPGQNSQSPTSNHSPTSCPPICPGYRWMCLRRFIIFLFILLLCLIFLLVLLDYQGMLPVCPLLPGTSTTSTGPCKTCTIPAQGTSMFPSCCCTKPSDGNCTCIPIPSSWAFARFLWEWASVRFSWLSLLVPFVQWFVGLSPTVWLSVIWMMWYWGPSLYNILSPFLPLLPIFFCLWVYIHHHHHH

[4] = biological target: T3, human CD3ε recombinant protein (human, UniProt P07766 23-126); assay: ELISA, recombinant human CD3ε
T3 construct: also called human CD3E; huCD3ε
T3 sequence (P07766 23-126 limits assumed): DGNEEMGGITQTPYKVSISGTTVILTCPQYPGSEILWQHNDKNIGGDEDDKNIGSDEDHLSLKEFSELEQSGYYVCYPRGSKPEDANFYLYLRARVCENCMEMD

[5] = biological target: T2, HBsAg recombinant protein; assay: ELISA, recombinant HBsAg
[6] = biological target: T3, human CD3ε recombinant protein; assay: ELISA, recombinant human CD3ε; remark: listed apart in the source
[7] = biological target: T4, CD3ε expressed on the surface of Jurkat cells (human, UniProt P07766 23-207); assay: flow cytometry on Jurkat cells (panel title: Binding with CD3+ T cell), MFI
T4 construct: whole, on cells; also called CD3 expressed on human leukemic T cell line Jurkat; hCD3ε
T4 sequence (P07766 23-207): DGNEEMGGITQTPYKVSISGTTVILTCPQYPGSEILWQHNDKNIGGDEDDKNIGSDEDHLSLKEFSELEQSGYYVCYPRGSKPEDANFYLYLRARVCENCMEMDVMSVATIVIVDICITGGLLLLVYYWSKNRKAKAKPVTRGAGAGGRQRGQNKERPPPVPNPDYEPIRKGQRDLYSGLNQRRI

B1: BsAb2-6 (C8 scFv fused to the C-terminus of the heavy chain of the murine anti-CD3 Ab via a linker) (bispecific antibody)
chain 1: not shown
chain 2: QAVVTQESALTTSPGETVTLTCRSSTGAVTTSNYANWVQEKPDHLFTGLIGGTNKRAPGVPARFSGSLIGDKAALTITGAQTEDEAIYFCALWYSNLWVFGGGTKLTVLRTVAAPSVFIFPPSDEQLKSGTASVVCLLNNFYPREAKVQWKVDNALQSGNSQESVTEQDSKDSTYSLSSTLTLSKADYEKHKVYACEVTHQGLSSPVTKSFNRGEC
Q: For B1, which “EC50 (read off the curve)” value [1] is on record?
A: Its value is roughly 0.07 nM.

Q: And the “EC50 (read off the curve)” value [2]?
A: Its value is roughly 0.07 nM.

Q: What about the “EC50 (read off the curve)” value [3] of the same binder?
A: The value was roughly 0.3 nM.

Q: What about the “EC50 (read off the curve)” value [4] of the same binder?
A: The value was roughly 0.3 nM.

Q: What about the “EC50 (read off the curve)” value [5] of the same binder?
A: The value was roughly 0.2 nM.

Q: And the “EC50 (read off the curve)” value [6]?
A: Its value is 0.1 to 0.2 nM.

B2: BsAb2-5 (C8 scFv fused to the N-terminal of the heavy chain of the murine anti-CD3 mAb) (bispecific antibody)
chain 1: not shown
chain 2: QAVVTQESALTTSPGETVTLTCRSSTGAVTTSNYANWVQEKPDHLFTGLIGGTNKRAPGVPARFSGSLIGDKAALTITGAQTEDEAIYFCALWYSNLWVFGGGTKLTVLRTVAAPSVFIFPPSDEQLKSGTASVVCLLNNFYPREAKVQWKVDNALQSGNSQESVTEQDSKDSTYSLSSTLTLSKADYEKHKVYACEVTHQGLSSPVTKSFNRGEC
Q: B2 was tested. Which “EC50 (read off the curve)” value [7] did it give?
A: Its value is roughly 0.05 nM.
